Measurements published in publication PMC2877716, “Genome-Wide Identification of Calcium-Response Factor (CaRF) Binding Sites Predicts a Role in Regulation of Neuronal Signaling Pathways”.

Experiments:
[1] = target: T1, recombinant CaRF (Figs 5 and 6) (UniProt Q8VHI4 1-689); test: competition; cCaRE probe, 100-fold excess; higher affinity than CaRF1; EMSA: 2 uL TNT or purified CaRF with 50 fmol 32P probe, 6% non-denaturing gel; competitors 50-150-fold excess, 30 min pre-incubation; buffer, pH and temperature not stated (cited ref 14); conditions: protein: recombinant; blunt
T1 sequence: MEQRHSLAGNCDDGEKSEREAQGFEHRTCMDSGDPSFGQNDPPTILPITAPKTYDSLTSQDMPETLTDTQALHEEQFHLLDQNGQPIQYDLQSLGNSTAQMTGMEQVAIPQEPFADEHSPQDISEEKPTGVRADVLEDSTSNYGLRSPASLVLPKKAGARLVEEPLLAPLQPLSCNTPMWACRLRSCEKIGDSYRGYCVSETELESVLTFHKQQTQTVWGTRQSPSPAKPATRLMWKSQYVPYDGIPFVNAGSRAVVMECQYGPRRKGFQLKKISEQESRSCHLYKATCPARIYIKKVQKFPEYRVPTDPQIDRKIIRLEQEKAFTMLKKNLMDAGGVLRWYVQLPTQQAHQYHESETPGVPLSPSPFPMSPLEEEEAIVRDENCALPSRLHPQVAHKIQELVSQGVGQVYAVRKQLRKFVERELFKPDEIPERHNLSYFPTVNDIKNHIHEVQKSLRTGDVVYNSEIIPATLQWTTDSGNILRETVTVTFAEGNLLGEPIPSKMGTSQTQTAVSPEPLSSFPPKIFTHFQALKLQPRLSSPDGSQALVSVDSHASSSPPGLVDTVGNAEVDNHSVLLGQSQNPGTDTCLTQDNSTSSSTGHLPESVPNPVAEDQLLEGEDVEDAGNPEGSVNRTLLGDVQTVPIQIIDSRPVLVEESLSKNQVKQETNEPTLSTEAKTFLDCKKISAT

CaRF (E. coli) [2] = target: T2, CaRF (E. coli) (Mus musculus (Methods); human per Fig 2 …, UniProt Q8VHI4 1-689); test: EMSA; EMSA: 2 uL TNT or purified CaRF with 50 fmol 32P probe, 6% non-denaturing gel; competitors 50-150-fold excess, 30 min pre-incubation; buffer, pH and temperature not stated (cited ref 14); conditions: protein: recombinant; label: 32P when probe; blunt
T2 sequence: T1 sequence

CaRF (TNT) [3] = target: T3, CaRF (TNT) (Homo sapiens, UniProt Q8N187 1-725); test: as above; conditions: protein: ivt; tags: N-terminal FLAG (DYKDDDDK); label: 32P when probe; blunt
T3 sequence: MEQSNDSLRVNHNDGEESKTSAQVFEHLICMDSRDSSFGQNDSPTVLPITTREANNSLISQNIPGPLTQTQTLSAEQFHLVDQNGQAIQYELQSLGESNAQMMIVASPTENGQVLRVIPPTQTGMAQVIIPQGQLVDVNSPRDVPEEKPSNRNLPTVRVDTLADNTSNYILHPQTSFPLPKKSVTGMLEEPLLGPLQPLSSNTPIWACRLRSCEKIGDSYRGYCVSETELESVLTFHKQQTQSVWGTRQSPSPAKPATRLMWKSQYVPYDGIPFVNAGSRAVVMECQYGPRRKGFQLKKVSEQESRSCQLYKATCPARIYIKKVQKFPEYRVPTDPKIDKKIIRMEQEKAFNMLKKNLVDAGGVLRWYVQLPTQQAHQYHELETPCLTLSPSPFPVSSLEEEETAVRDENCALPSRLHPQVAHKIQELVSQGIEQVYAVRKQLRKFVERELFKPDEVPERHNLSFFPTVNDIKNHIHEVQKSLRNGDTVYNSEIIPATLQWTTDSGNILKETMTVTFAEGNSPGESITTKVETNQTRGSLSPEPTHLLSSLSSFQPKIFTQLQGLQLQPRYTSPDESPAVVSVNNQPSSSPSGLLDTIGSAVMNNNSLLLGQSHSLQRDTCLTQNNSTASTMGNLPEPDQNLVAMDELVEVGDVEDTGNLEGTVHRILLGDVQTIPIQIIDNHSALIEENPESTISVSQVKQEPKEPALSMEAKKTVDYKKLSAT

CaRF (E. coli) [4] = target: T2, CaRF (E. coli); test: competition; CaRE1 probe, 50-fold excess; EMSA: 2 uL TNT or purified CaRF with 50 fmol 32P probe, 6% non-denaturing gel; competitors 50-150-fold excess, 30 min pre-incubation; buffer, pH and temperature not stated (cited ref 14); conditions: protein: recombinant; blunt
CaRF (TNT) [5] = target: T3, CaRF (TNT); test: as above; conditions: protein: ivt; tags: N-terminal FLAG (DYKDDDDK); blunt
[6] = target: T1, recombinant CaRF (Figs 5 and 6); test: competition; camCaRE probe, 50-100-fold excess; EMSA: 2 uL TNT or purified CaRF with 50 fmol 32P probe, 6% non-denaturing gel; competitors 50-150-fold excess, 30 min pre-incubation; buffer, pH and temperature not stated (cited ref 14); conditions: protein: recombinant; blunt
[7] = target: T1, recombinant CaRF (Figs 5 and 6); test: EMSA; EMSA: 2 uL TNT or purified CaRF with 50 fmol 32P probe, 6% non-denaturing gel; competitors 50-150-fold excess, 30 min pre-incubation; buffer, pH and temperature not stated (cited ref 14); conditions: protein: recombinant; label: 32P when probe; blunt

B1: CaRF2 (dsDNA)
DNA 1: TGAGTAGTCTCGTTTTGAATTTTCTCC
DNA 2: GGAGAAAATTCAAAACGAGACTACTCA
B1: binds [1].

B2: CaRE1 (dsDNA)
DNA 1: GAGTGTCTATTTCGAGGCAGAGGAGG
DNA 2: CCTCCTCTGCCTCGAAATAGACACTC
B2: binds (CaRF (E. coli) [2]); binds (CaRF (TNT) [3]).

B3: mCaRE1 (mCaRE) (dsDNA)
DNA 1: GAGTGTCTTCCGCCAGGCAGAGGAGG
DNA 2: CCTCCTCTGCCTGGCGGAAGACACTC
B3: no binding (CaRF (E. coli) [4]); no binding (CaRF (TNT) [5]); no binding [6].

B4: camCaRE (dsDNA)
DNA 1: TCAAAGCGAGGCAGA
DNA 2: TCTGCCTCGCTTTGA
B4: binds [7].
